The data set can be described thus: yeast display, Sf9 membrane polyspecificity reagent, FACS + sequencing; frameworks hold sequencing errors. In a few lines: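 Galactose-induced (36–48 hours) yeast carrying a synthetic nanobody display library were exposed to 10% biotinylated, detergent-solubilized Sf9 membrane reagent at 4 °C for 1 hour. FACS followed streptavidin microbead enrichment, using low and high (top ~1%) gates for expression (anti-HA) and reagent binding (streptavidin). Colony PCR, MiSeq 2 × 250 sequencing and CDR-length filtering followed. Labels for polyreactivity reflect the gate of origin.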
As to “QVQLVESGGGLVQAGGSLRLSCAASGFNFSYYAMGWYRHAPGKEWELVAAISRSGGSTYYADSVKGRFTISRDNAKNTVYLQMNSLKPEDTAVYYCAKRIKDRSGEAYVGLYYWGQGTQVTVSS”, the “polyreactivity (PSR sort gate)” value is reported as “high polyreactivity”.
“QDQHVESGGGLVQAGGSLRLICAASGSIIQVYAIGWYRQAPGKEREFVASITRTGGSTKYADSVKGRFTISRDNAKNTVYLQMNSLKPEDTAFFYCNAVPRSWSPYRHWFDYWGQGTQVTVSS”: the “polyreactivity (PSR sort gate)” value is “low polyreactivity”.
The entry for “QVQLVESGGGLVQEGGSLRLSCAASGRILSPNAMGWYRQAPGKERELVATITRSGGSTYYADSVKGRFTISRDNAKNTVYLQMNSLKPEDTAVYYCAKLHTYPWIHDYWGQGTQVTVSS” is “low polyreactivity”.
With “QVQLVESGGGLVQAGGSLRLSCAASGSTFWYYAMGWYRQEPGKERELVASITYSGGSTYYADSVKGRFTISRDNAKNTVYLQMNSLKPEDTAVYYCAAQSPAYYTKSYWGQGTQVTVSS” the entry was “low polyreactivity”.
With “QVQLVESGGGLVQAGGSLRLSCAASGNTFRWYAMGWYRQAPGKEREFVADITVRGGSTYYADSVKGRFTISRDNAKNTVYLQMNSLKPEDTAVYYCASYHYYTYDYWGQGTQVTVSS” the entry was “low polyreactivity”; with “QVQLVESGGGLVQAGGRLRFSCAASGSTFRPNAMGWYRQAPGNERELVAAITRPGGSTFYADSVKGRFTISRDYAKHTVYLQMNSLKPEDTAVYYCATRQRVDLAPLARYGYWGQGTQVTVSS”, “low polyreactivity”; with “QVQLVESGGGLVQAGGSLRLSCAASGSTFSNNTMGWYRQAPGKERELVAAISWRGTRTYYADSVKGRFTISRDNAKNTVYLQMNSLKPEDTAVYYCNKLPTYPDYGYDSWGQGTQVTVSS”, “high polyreactivity”.
Turning to “QVQLVESGGGLVQAGGSLRLSCAASGFIFTTNAMGWYRQAPGKERELVAAITRSGGSTYADSVKGRFTISRDNAKNTVYLQMNSLKPEDTAVYYCNADWAGVYTSYEYDYWGQGTQVTVSS”, the “polyreactivity (PSR sort gate)” value is “low polyreactivity”.
With “QVQLVESGGGLVQAGGSLRLSCAASGFTFRWYAMRWYRQAPGKERELVADITRSGDTNYAYSVKGRFTISRDNAKNTVYLQMKSQKPEDTAVYSCAKDWAYRRHWVGFYYWGQGTQVTVSA” the entry was “low polyreactivity”; with “QVQLVESGGGLVQAGGSLRLSCAASGIFVDNAMGWYRQAPGKERELVAAITSSTDSTYYADSVKGRFTISRDNAKNTVYLQMNSLKPEDTAVYYCAVARPGGFYFLVHYGYGYWGQGPQVTVSS”, “low polyreactivity”.
The entry for “QVQLVESGGGLVQAGGSLRLSCAASGSTFGSYAMGWYRQAPGGERELVAAISWNGGRTYYADSVKGRFTISRDNAKNTVYLQMNSLKPEDTAVYYCAKVVKYQSGGGLEYWGQGTQVTVSS” is “high polyreactivity”; for “QVQLVESGGGLVQAGGSLRLSCAASGSTFYYYTMGCYRQAPGKEREFVAAITRSGGSTYYADSVKGRFTISRDNAKNTVYLQMNSLKPEDTAVYYCAATRQRVKSEYWGQGTQVTVSS” it is “low polyreactivity”.
With “QVQLVESGGGLVQAGGSLRLSCAASGRILRTYAMGWYRPAPGKERELVAAISRSGGSTYYADSVKGRFTISRDNAKNTVYLQMNSLKPEDTAVYYCNKAYGGRGYKYEYWGQGTQVTVSS” the entry was “high polyreactivity”; with “QVLLVESGGGLVQAGGSLRLTCTPYGSIFGYYVMGRYRQPPGKEREFVAAISYGGGSTYYADSVKGRFTISRDNAKNTVYLQMNSLKPEETAVYYCNTDIYSDYVGEEYEYWGQGSQVTVSS”, “high polyreactivity”; with “QVQLVESGGGLVQAGGSLRLSCAASGSIFRYYAMGWYRQAPGKERELVAAISSNGGSTYYADSVKGRFTISRDNAKNTVYLQMNSLKPEDTAVYYCAALFRRAPGYYWGQGTQVTVSS”, “high polyreactivity”.
As for “QVQLVESGGGLVQAGGSLRLSCAASGSIFWRNAMGWYRQAPGKERELVAVISSGGRTYYADSVKGRFTISRDNAKNTVYLQMNSLKPEDTAVYYCAAQYHGGISQRLYYWGQGTQVTVSS”, the “polyreactivity (PSR sort gate)” value is “high polyreactivity”.
The entry for “QVQLVESGGGLVQAGGSVRLSCAASGFTFGYYAMGWYRQAPGKERELVASISSVDNTYYADSVKGRFTISRDNAKNTVSFQMNSLKPEDTAVDYCAARYRDYFVRGGYWGQGTQVSVSS” is “high polyreactivity”; for “QVQLVESGGGLVQARGSLRLSCAASGNTFPSYAMGWYRQAHGKERELVAAITSGGRTYYADSVNGRFTISRDNAKNTVYLQLNSLKPEDTAVYYCAAEWVVRYPWYRYYYWGQGTEVTVSS” it is “high polyreactivity”.
With “QVQLVESGGGLVQAGGSLRLSCAASGLTFRRNAMGWYRQAPGKERELVAAISSGGVRTYYADSVKGRFTISRDNAKNTVYLQMNSLKPEDTAVYYCAAEDYAQRYTHYESWGQGTQVTVSS” the entry was “low polyreactivity”; with “QVQLVESGGGLVQAGGSLRLSCAASGSTLYRYAMGWYRQAAGKERELVATITRSGGSTYYADSVKGRFTISRDNAKNTVYLQMNSLKPEDTAVYSCAAYRKVGGFSRGDYWGQGTQVTVSS”, “high polyreactivity”.
With “QVQLVESGGGLVQAGGSLRLSCAASGSTFYTNAMGWYRQAPGKERELVAAINRSGGRTYYADSVKGRFTISRDNAKNTVYLQMISLKPEDTAVYYCAARYPLRISTDTARDYYWGQGTQVTVSS” the entry was “low polyreactivity”; with “QVQLVESGGGLVQAGGSLRLSCAASGRIFEINTMGWYRQAPGKERELVAAISRGGGSTYYADSVKGRFTISRDNAKNTVYLQMNSLKPEDTAVYYCAAASYYVEGDYWGQGTQVTVSS”, “low polyreactivity”.
As to “QVQLVESGGGLVQAGGSLRLSCAASGRIFGGYAMGWYRPAPGKERELVAAISGGGSTNYADSVKGRFTISRDNAKNTVYLQMNSLKPEDTAVYYCAAQYWSRRFYWYGYWGQGTQVTVSS”, the “polyreactivity (PSR sort gate)” value is reported as “high polyreactivity”.
The entry for “QVQLVESGGGLVQAGGSLRLSCAASGFTFWTYAMGWYRQAPGKERELVATISKRGGSTYYADSVKGRFTISRDNAMNTVYLQMNSLKPEVTAVYYCNRPSYGKEMDYWGQGTQVTVSS” is “high polyreactivity”.
With “QVQLVESGGGLVQAGGSLRLSCAASGSIFPYYAMGWYRQAPGKERELVATITYRGGSTNYADSVKGRFTISRDNAKNTVYLQMNSLNPEDTAVYYCAAYGYVLASPYPYSFVKLGYWGQGTQVTVSS” the entry was “low polyreactivity”; with “QVQLVESGGGLVQAGGSLRLSCAASGRIFWNYAMGWYSQAPGKERELVASINWSGGSTYYADSVKGRFTISRDNAKNTVYLQMNSLKPEDTAVYYCNKDGRVYLDHDYWGQGTQVTVSS”, “low polyreactivity”.
For “QVQLEESGGGLVQAGGSLRLSCAASGSIFYSYAMGWYRQAPGNERELVAAITRGGSTYYADSVKGRFTISRDNAKNTVYLQMNSLKPEDTAVYYCAADSQYGWPEYEYDYWGQGTQVTVSS”, the “polyreactivity (PSR sort gate)” value is “low polyreactivity”.
With “QVQLVESGGGLVQAGGSLRLSCAASGSIFNYNAMGWYRQAPGKERELVAAITWSGGTTYYADSVKGRFTISRDNAKNTVYLQMNSLIPEDTAVYYCAAEWWDGSYPLYEYYYWGQGTQVNVSS” the entry was “high polyreactivity”; with “QVQLVESGGGLVQAGGSLRLSSAASGSIFVRNAMGWYRQAPGKERELVAAITSRVGSTYYADSVKGRFTISRDNAKNTVYLQMNSLKPEDTAVYYCAVVFAKRAWSRYDYWGQGTQVTVSS”, “high polyreactivity”; with “QVQLVESGGGLVQAGGSLRLSCAASGLIFGWNARGWYRQAPGKERELVAAINSGGITNYADSVKGRFTISRDNAKNTVYFQMNWLKPEDTAVYYCAADVVQYGLDWYGEEYESWGQGTQVTVSS”, “low polyreactivity”.
